Patent US7781394B2, “Methods for identifying anti-tumor and/or anti-angiogenesis drugs with deoxynucleoside 5′-monophosphate N-glycosidase as the target” (Institut Pasteur, priority 2006, dated 2010)

Assays:
[1] = system: Rat1a-MYC cell xenografts; assay: Nude mouse xenografts of Rat1a-MYC-Rcl-E93A cells, tumorigenicity; type: in vivo; settings: two independent cell pools
Text: FIG. 7A. Immunoblot showing expression of Rcl-E93A protein in 293T cells; pPURO (pBabe-Puro) represents control transfected cells; none=untransfected cells. B. Immunoblot showing expression of Rcl and Rcl-E 93A in Rat1a-MYC cells (which have high levels of endogenous Rcl). Numbers at the top represents different cell pools. Numbers at the bottom represents normalized relative expression. C. Agarose gel showing expression of Rcl-E93A mRNA in transfectants by RT-PCR of control pPURO or Rcl-E93A expressing Rat1a-MYC cell pools. Signals are dependent on reverse transcriptase (not shown) D. Tumor sizes of pBABE (pools 1 and 2) control Rat1a-Myc cell pools compared with RCL E93A expressing Rat1a-MYC cell pools (E93A#1+E93A#4). Average tumor sizes determined by caliper are shown for groups of nine animals. Error bars are standard deviations.
(§1) In addition to the studies on RCL (C6orf108) gain-of-function in tumorigenesis, we determined the effect of loss of RCL function on tumorigenesis with the Rat1a-Myc cells. We generated control Rat1a-MYC cells and Rat1a-MYC cells that overexpress the dominant negative Rcl E 93A mutant. Two independent control transfected cell pools and two independent Rcl E 93A Rat1a-MYC transfectant cell pools were studied (FIG. 7).

Rat1a-MYC cells = assay: In vitro growth of Rat1a-MYC cells overexpressing dominant negative Rcl E93A; type: cell-based, rat; settings: Rat1a-MYC cells overexpressing the mutant
Text: as §1

B1: Rcl E 93A: dominant negative RCL mutant, Glu-93 replaced by Ala, overexpressed in Rat1a-MYC cells (protein, UniProt O35820 2-163, looked up, variant E93A)
5-hydroxymethyl-dUMP …: AASGEQAPCSVYFCGSIRGGREDQALYARIVSRLRRYGKVLTEHVADAELEPLGEEAAGGDQFIHEQDLNWLQQADVVVAEVTQPSLGVGYALGRAVALGKPILCLFRPQSGRVLSAMIRGAADGSRFQVWDYAEGEVETMLDRYFEAYLPQKTASSSHPSA
tumorigenicity of xenografts versus control cell pools [1]: remarkable decrease in tumorigenicity
effect on growth rates in vitro (Rat1a-MYC cells): does not affect growth rates
